Source: IntAct's records for PubMed 22164283

Target: tbxt_mouse Tbxt (UniProt P20293)
Sequence (P20293 whole entry): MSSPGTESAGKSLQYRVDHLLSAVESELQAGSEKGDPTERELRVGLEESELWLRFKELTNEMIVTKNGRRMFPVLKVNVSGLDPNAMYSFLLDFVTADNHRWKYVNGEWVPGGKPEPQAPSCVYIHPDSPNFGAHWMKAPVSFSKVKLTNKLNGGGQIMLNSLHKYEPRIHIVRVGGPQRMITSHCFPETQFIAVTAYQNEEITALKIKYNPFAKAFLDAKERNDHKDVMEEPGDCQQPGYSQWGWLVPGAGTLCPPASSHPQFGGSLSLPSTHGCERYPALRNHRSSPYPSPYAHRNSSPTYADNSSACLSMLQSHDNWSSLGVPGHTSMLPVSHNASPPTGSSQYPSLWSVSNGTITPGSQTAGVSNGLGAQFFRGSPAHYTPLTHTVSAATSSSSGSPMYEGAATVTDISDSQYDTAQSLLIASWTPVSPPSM

Chain of Homeobox protein MIXL1 (Mus musculus), Q9WUI0 V132A (Q9WUI0 whole entry V132A): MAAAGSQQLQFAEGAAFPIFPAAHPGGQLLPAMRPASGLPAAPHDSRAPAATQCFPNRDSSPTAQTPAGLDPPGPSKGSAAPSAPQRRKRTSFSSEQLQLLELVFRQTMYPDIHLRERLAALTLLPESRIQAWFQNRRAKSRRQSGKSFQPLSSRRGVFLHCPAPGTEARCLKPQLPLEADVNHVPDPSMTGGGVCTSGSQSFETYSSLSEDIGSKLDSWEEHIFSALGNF
Chain of Homeobox protein MIXL1 (Mus musculus), Q9WUI0 P126I (Q9WUI0 whole entry P126I): as the sequence (Q9WUI0 whole entry V132A) above, with P126I, A132V counted along it
Chain of Homeobox protein MIXL1 (Mus musculus), Q9WUI0 I113R (Q9WUI0 whole entry I113R): as the sequence (Q9WUI0 whole entry V132A) above, with I113R, A132V counted along it
Chain of Homeobox protein MIXL1 (Mus musculus), Q9WUI0 R143I (Q9WUI0 whole entry R143I): as the sequence (Q9WUI0 whole entry V132A) above, with A132V, R143I counted along it

| Substance | effect of a mutation on the interaction |
| --- | --- |
| Homeobox protein MIXL1 (Mus musculus), Q9WUI0 V132A | with no effect |
| Homeobox protein MIXL1 (Mus musculus), Q9WUI0 R143I | with no effect |
| Homeobox protein MIXL1 (Mus musculus), Q9WUI0 I113R | with no effect |
| Homeobox protein MIXL1 (Mus musculus), Q9WUI0 P126I | decreasing interaction strength |
